The source of these data is the Human Domainome abundance scans (Beltran et al. 2025).

± gives the uncertainty stated by the source.

The chains are these.
B1: GA-binding protein alpha chain, residues 172 to 250; numbered along this chain, Q06546 (parent)
chain: GYRKEQERLGIPYDPIQWSTDQVLHWVVWVMKEFSMTDIDLTTLNISGRELCSLNQEDFFQRVPRGEILWSHLELLRKY

The series covers variants of B1. The experiment in a line: abundance fitness (aPCA) (normalised: wild type 0, dead -1); higher = more abundant; growth selection in yeast, the domain comes from the species named. The following applies: Homo sapiens.
As for GYRKEQEQLGIPYDPIQWSTDQVLHWVVWVMKEFSMTDIDLTTLNISGRELCSLNQEDFFQRVPRGEILWSHLELLRKY [R8Q], the abundance fitness is -0.158 ± 0.061.

For GYRKWQERLGIPYDPIQWSTDQVLHWVVWVMKEFSMTDIDLTTLNISGRELCSLNQEDFFQRVPRGEILWSHLELLRKY [E5W], the abundance fitness is -0.442 ± 0.094. In the case of GYRKQQERLGIPYDPIQWSTDQVLHWVVWVMKEFSMTDIDLTTLNISGRELCSLNQEDFFQRVPRGEILWSHLELLRKY [E5Q] it was -0.485 ± 0.074. As for GYRKLQERLGIPYDPIQWSTDQVLHWVVWVMKEFSMTDIDLTTLNISGRELCSLNQEDFFQRVPRGEILWSHLELLRKY [E5L], the abundance fitness is -0.45 ± 0.05.

GYRKIQERLGIPYDPIQWSTDQVLHWVVWVMKEFSMTDIDLTTLNISGRELCSLNQEDFFQRVPRGEILWSHLELLRKY [E5I]: the abundance fitness was found to be 0.004 ± 0.064. As to GYRKAQERLGIPYDPIQWSTDQVLHWVVWVMKEFSMTDIDLTTLNISGRELCSLNQEDFFQRVPRGEILWSHLELLRKY [E5A], the abundance fitness is -0.608 ± 0.058. As to GYRKTQERLGIPYDPIQWSTDQVLHWVVWVMKEFSMTDIDLTTLNISGRELCSLNQEDFFQRVPRGEILWSHLELLRKY [E5T], the abundance fitness was -0.347 ± 0.093. Consider GYRKVQERLGIPYDPIQWSTDQVLHWVVWVMKEFSMTDIDLTTLNISGRELCSLNQEDFFQRVPRGEILWSHLELLRKY [E5V], for which the abundance fitness is -0.093 ± 0.042.

As to GYRKCQERLGIPYDPIQWSTDQVLHWVVWVMKEFSMTDIDLTTLNISGRELCSLNQEDFFQRVPRGEILWSHLELLRKY [E5C], the abundance fitness was -0.288 ± 0.07. Next, GYRKKQERLGIPYDPIQWSTDQVLHWVVWVMKEFSMTDIDLTTLNISGRELCSLNQEDFFQRVPRGEILWSHLELLRKY [E5K]: -0.806 ± 0.22; GYRKRQERLGIPYDPIQWSTDQVLHWVVWVMKEFSMTDIDLTTLNISGRELCSLNQEDFFQRVPRGEILWSHLELLRKY [E5R]: -0.913 ± 0.078; GYRKMQERLGIPYDPIQWSTDQVLHWVVWVMKEFSMTDIDLTTLNISGRELCSLNQEDFFQRVPRGEILWSHLELLRKY [E5M]: -0.281 ± 0.077. For the variant GYRKSQERLGIPYDPIQWSTDQVLHWVVWVMKEFSMTDIDLTTLNISGRELCSLNQEDFFQRVPRGEILWSHLELLRKY [E5S], the abundance fitness is -0.742 ± 0.057. Next, GYRKFQERLGIPYDPIQWSTDQVLHWVVWVMKEFSMTDIDLTTLNISGRELCSLNQEDFFQRVPRGEILWSHLELLRKY [E5F]: -0.419 ± 0.088; GYRKNQERLGIPYDPIQWSTDQVLHWVVWVMKEFSMTDIDLTTLNISGRELCSLNQEDFFQRVPRGEILWSHLELLRKY [E5N]: -0.897 ± 0.24.

Turning to GYRKPQERLGIPYDPIQWSTDQVLHWVVWVMKEFSMTDIDLTTLNISGRELCSLNQEDFFQRVPRGEILWSHLELLRKY [E5P], the abundance fitness is -0.958 ± 0.19. Consider GYRKDQERLGIPYDPIQWSTDQVLHWVVWVMKEFSMTDIDLTTLNISGRELCSLNQEDFFQRVPRGEILWSHLELLRKY [E5D], for which the abundance fitness is -0.371 ± 0.074. GYRKYQERLGIPYDPIQWSTDQVLHWVVWVMKEFSMTDIDLTTLNISGRELCSLNQEDFFQRVPRGEILWSHLELLRKY [E5Y]: the abundance fitness was -0.149 ± 0.096. GYRKHQERLGIPYDPIQWSTDQVLHWVVWVMKEFSMTDIDLTTLNISGRELCSLNQEDFFQRVPRGEILWSHLELLRKY [E5H]: the abundance fitness is -0.354 ± 0.13. GYRKEQVRLGIPYDPIQWSTDQVLHWVVWVMKEFSMTDIDLTTLNISGRELCSLNQEDFFQRVPRGEILWSHLELLRKY [E7V]: the abundance fitness was -0.172 ± 0.033. Next, GYRKEQWRLGIPYDPIQWSTDQVLHWVVWVMKEFSMTDIDLTTLNISGRELCSLNQEDFFQRVPRGEILWSHLELLRKY [E7W]: -0.288 ± 0.05; GYRKEQRRLGIPYDPIQWSTDQVLHWVVWVMKEFSMTDIDLTTLNISGRELCSLNQEDFFQRVPRGEILWSHLELLRKY [E7R]: -0.141 ± 0.03; GYRKEQSRLGIPYDPIQWSTDQVLHWVVWVMKEFSMTDIDLTTLNISGRELCSLNQEDFFQRVPRGEILWSHLELLRKY [E7S]: -0.163 ± 0.038.

Regarding GYRKEQNRLGIPYDPIQWSTDQVLHWVVWVMKEFSMTDIDLTTLNISGRELCSLNQEDFFQRVPRGEILWSHLELLRKY [E7N], the abundance fitness was -0.177 ± 0.14. In the case of GYRKEQGRLGIPYDPIQWSTDQVLHWVVWVMKEFSMTDIDLTTLNISGRELCSLNQEDFFQRVPRGEILWSHLELLRKY [E7G], the abundance fitness was -0.315 ± 0.029.

On to GYRKEQQRLGIPYDPIQWSTDQVLHWVVWVMKEFSMTDIDLTTLNISGRELCSLNQEDFFQRVPRGEILWSHLELLRKY [E7Q], for which the abundance fitness is -0.072 ± 0.054. GYRKEQPRLGIPYDPIQWSTDQVLHWVVWVMKEFSMTDIDLTTLNISGRELCSLNQEDFFQRVPRGEILWSHLELLRKY [E7P]: the abundance fitness was -0.891 ± 0.097. Next, GYRKEQDRLGIPYDPIQWSTDQVLHWVVWVMKEFSMTDIDLTTLNISGRELCSLNQEDFFQRVPRGEILWSHLELLRKY [E7D]: 0.031 ± 0.073; GYRKEQKRLGIPYDPIQWSTDQVLHWVVWVMKEFSMTDIDLTTLNISGRELCSLNQEDFFQRVPRGEILWSHLELLRKY [E7K]: -0.494 ± 0.28. In the case of GYRKEQYRLGIPYDPIQWSTDQVLHWVVWVMKEFSMTDIDLTTLNISGRELCSLNQEDFFQRVPRGEILWSHLELLRKY [E7Y] it was -0.282 ± 0.085. For the variant GYRKEQIRLGIPYDPIQWSTDQVLHWVVWVMKEFSMTDIDLTTLNISGRELCSLNQEDFFQRVPRGEILWSHLELLRKY [E7I], the abundance fitness is -0.161 ± 0.12. On to GYRKEQARLGIPYDPIQWSTDQVLHWVVWVMKEFSMTDIDLTTLNISGRELCSLNQEDFFQRVPRGEILWSHLELLRKY [E7A], for which the abundance fitness was -0.071 ± 0.044. With GYRKEQMRLGIPYDPIQWSTDQVLHWVVWVMKEFSMTDIDLTTLNISGRELCSLNQEDFFQRVPRGEILWSHLELLRKY [E7M], the abundance fitness is -0.098 ± 0.057. On to GYRKEQTRLGIPYDPIQWSTDQVLHWVVWVMKEFSMTDIDLTTLNISGRELCSLNQEDFFQRVPRGEILWSHLELLRKY [E7T], for which the abundance fitness is -0.09 ± 0.046.

In the case of GYRKEQFRLGIPYDPIQWSTDQVLHWVVWVMKEFSMTDIDLTTLNISGRELCSLNQEDFFQRVPRGEILWSHLELLRKY [E7F], the abundance fitness was -0.252 ± 0.063.
